Assay results: PMC9482650, “Quantitative fragmentomics allow affinity mapping of interactomes” (Nature Communications, 2022)

T1: LIN7A, O14910
T1 sequence (O14910 103-200, limits assumed, looked up): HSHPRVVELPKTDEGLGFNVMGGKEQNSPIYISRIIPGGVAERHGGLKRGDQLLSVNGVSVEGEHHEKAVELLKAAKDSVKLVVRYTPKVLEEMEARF

T2: HTRA4, P83105
T2 sequence (P83105 378-476, limits assumed, looked up): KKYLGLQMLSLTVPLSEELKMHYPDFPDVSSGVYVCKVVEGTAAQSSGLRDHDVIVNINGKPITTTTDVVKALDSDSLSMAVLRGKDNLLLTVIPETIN

T3: ARHGEF11, O15085
T3 sequence (O15085 42-136, limits assumed, looked up): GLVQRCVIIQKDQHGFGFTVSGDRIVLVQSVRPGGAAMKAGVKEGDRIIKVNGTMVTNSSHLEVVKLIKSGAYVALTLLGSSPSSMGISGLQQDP

T4: NHERF3_4, Q5T2W1
T4 sequence (Q5T2W1 373-468, limits assumed, looked up): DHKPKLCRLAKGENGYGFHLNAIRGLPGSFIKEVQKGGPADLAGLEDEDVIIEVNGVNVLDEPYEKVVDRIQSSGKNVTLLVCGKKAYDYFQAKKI

T5: TX1BP3, O14907
T5 sequence (O14907 10-122, limits assumed, looked up): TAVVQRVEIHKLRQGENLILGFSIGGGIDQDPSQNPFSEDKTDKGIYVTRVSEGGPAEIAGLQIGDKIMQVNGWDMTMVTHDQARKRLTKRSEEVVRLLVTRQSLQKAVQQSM

T6: DFNB31_1, Q9P202
T6 sequence (Q9P202 135-233, limits assumed, looked up): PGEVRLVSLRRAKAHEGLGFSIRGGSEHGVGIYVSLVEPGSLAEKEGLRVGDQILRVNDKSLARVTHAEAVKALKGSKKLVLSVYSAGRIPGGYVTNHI

T7: GRIP1_7, Q9Y3R0
T7 sequence (Q9Y3R0 999-1096, limits assumed, looked up): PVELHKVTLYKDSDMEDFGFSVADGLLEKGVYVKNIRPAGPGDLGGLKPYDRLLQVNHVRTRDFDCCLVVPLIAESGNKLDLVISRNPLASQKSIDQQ

T8: PCLO, Q9Y6V0
T8 sequence (Q9Y6V0 4491-4600, limits assumed, looked up): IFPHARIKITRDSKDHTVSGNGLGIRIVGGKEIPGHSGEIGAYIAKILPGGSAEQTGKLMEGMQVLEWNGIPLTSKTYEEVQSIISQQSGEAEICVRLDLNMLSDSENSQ

T9: MPP2, Q14168
T9 sequence (Q14168 180-250, limits assumed, looked up): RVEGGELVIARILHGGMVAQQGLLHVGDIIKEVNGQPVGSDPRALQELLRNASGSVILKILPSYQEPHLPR

T10: MPDZ_10, O75970
T10 sequence (O75970 1624-1722, limits assumed, looked up): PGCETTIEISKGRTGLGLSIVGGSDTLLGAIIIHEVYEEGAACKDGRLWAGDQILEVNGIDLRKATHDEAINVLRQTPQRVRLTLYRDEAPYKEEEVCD

T11: RADIL, Q96JH8
T11 sequence (Q96JH8 971-1071, limits assumed, looked up): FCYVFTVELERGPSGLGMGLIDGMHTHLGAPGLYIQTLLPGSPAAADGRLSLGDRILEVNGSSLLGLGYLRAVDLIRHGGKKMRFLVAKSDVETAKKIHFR

T12: LNX2_2, Q8N448
T12 sequence (Q8N448 334-432, limits assumed, looked up): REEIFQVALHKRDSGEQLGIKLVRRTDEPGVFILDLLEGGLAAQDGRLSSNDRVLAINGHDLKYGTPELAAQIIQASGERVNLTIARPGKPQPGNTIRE


Key:
Assay in all cases: holdup assay
Set-up in all cases: key: below the threshold = too weak to quantify, mostly under pKd 3.1 to 4
Details in all cases: plain residues with an end cap or a label only (N-terminal biotin on a linker: ado-ado)
MAGI1_1, Q96QZ7 = biological target: MAGI1_1, Q96QZ7
Inadl_5, Q8NI35 = biological target: Inadl_5, Q8NI35
LIN7A, O14910 = biological target: T1, LIN7A, O14910
LNX1_3, Q8TBB1 = biological target: LNX1_3, Q8TBB1
HTRA4, P83105 = biological target: T2, HTRA4, P83105
ARHGEF11, O15085 = biological target: T3, ARHGEF11, O15085
NHERF3_4, Q5T2W1 = biological target: T4, NHERF3_4, Q5T2W1
GOPC, Q9HD26 = biological target: GOPC, Q9HD26
TX1BP3, O14907 = biological target: T5, TX1BP3, O14907
FRMPD2_1, Q68DX3 = biological target: FRMPD2_1, Q68DX3
DFNB31_1, Q9P202 = biological target: T6, DFNB31_1, Q9P202
Inadl_10, Q8NI35 = biological target: Inadl_10, Q8NI35
Inadl_9, Q8NI35 = biological target: Inadl_9, Q8NI35
MAGI1_2, Q96QZ7 = biological target: MAGI1_2, Q96QZ7
GRIP1_7, Q9Y3R0 = biological target: T7, GRIP1_7, Q9Y3R0
TJP2_1, Q9UDY2 = biological target: TJP2_1, Q9UDY2
FRMPD2_2, Q68DX3 = biological target: FRMPD2_2, Q68DX3
PCLO, Q9Y6V0 = biological target: T8, PCLO, Q9Y6V0
IL16_3, Q14005 = biological target: IL16_3, Q14005
MPP2, Q14168 = biological target: T9, MPP2, Q14168
MAGI3_2, Q5TCQ9 = biological target: MAGI3_2, Q5TCQ9
TJP1_2, Q07157 = biological target: TJP1_2, Q07157
MPDZ_10, O75970 = biological target: T10, MPDZ_10, O75970
RADIL, Q96JH8 = biological target: T11, RADIL, Q96JH8
LNX2_2, Q8N448 = biological target: T12, LNX2_2, Q8N448

Chain of FRMPD2_1, Q68DX3 (Q68DX3 770-861): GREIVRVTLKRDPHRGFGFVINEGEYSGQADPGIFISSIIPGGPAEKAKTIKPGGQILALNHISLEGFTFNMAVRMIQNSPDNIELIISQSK
Chain of MAGI1_2, Q96QZ7 (Q96QZ7 456-580): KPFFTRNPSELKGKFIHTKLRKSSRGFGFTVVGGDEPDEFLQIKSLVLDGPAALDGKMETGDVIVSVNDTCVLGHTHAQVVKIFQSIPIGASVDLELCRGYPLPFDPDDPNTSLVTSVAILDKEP
Chain of IL16_3, Q14005 (Q14005 1107-1207): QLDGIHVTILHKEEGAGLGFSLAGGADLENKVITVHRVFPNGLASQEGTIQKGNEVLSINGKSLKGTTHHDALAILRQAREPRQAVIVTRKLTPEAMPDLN
Chain of Inadl_9, Q8NI35 (Q8NI35 1530-1615): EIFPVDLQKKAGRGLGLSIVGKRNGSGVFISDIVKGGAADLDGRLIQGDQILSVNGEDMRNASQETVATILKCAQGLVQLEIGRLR
Chain of Inadl_10, Q8NI35 (Q8NI35 1673-1763): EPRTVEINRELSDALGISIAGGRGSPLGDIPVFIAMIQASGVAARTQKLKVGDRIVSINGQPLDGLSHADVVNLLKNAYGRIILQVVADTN
Chain of FRMPD2_2, Q68DX3 (Q68DX3 944-1038): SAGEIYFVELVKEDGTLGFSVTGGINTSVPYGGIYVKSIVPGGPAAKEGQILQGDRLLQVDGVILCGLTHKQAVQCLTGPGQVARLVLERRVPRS
Chain of LNX1_3, Q8TBB1 (Q8TBB1 500-596): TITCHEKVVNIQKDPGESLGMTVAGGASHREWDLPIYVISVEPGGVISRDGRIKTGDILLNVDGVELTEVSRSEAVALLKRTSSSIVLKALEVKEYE
Chain of MAGI3_2, Q5TCQ9 (Q5TCQ9 398-503): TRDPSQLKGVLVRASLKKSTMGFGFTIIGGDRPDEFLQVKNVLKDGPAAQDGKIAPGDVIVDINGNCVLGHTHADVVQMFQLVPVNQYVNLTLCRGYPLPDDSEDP
Chain of TJP2_1, Q9UDY2 (Q9UDY2 24-128): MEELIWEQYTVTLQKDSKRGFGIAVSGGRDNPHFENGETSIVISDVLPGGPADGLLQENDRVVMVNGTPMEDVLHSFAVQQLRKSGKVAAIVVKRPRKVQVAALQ
Chain of MAGI1_1, Q96QZ7 (Q96QZ7 1-106): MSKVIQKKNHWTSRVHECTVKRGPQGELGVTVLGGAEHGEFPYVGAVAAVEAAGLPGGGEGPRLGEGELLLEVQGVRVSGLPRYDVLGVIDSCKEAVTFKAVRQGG
Chain of Inadl_5, Q8NI35 (Q8NI35 673-780): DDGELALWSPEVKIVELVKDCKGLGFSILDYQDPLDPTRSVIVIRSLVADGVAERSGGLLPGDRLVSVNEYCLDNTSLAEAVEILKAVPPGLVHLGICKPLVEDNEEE
Chain of TJP1_2, Q07157 (Q07157 181-274): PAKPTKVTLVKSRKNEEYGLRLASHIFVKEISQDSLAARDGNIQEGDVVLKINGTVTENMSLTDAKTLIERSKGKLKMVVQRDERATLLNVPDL

pKd (MAGI1_1, Q96QZ7)	pKd (Inadl_5, Q8NI35)	pKd (LIN7A, O14910)	pKd (LNX1_3, Q8TBB1)	pKd (HTRA4, P83105)	pKd (ARHGEF11, O15085)	pKd (NHERF3_4, Q5T2W1)	pKd (GOPC, Q9HD26)	pKd (TX1BP3, O14907)	pKd (FRMPD2_1, Q68DX3)	pKd (DFNB31_1, Q9P202)	pKd (Inadl_10, Q8NI35)	pKd (Inadl_9, Q8NI35)	pKd (MAGI1_2, Q96QZ7)	pKd (GRIP1_7, Q9Y3R0)	pKd (TJP2_1, Q9UDY2)	pKd (FRMPD2_2, Q68DX3)	pKd (PCLO, Q9Y6V0)	pKd (IL16_3, Q14005)	pKd (MPP2, Q14168)	Binder	further results
below the threshold	below the threshold	below the threshold	below the threshold	3.85	below the threshold	below the threshold	below the threshold	3.47	below the threshold	below the threshold	below the threshold	below the threshold	below the threshold	below the threshold	below the threshold	below the threshold	below the threshold	below the threshold	below the threshold	LSEFKAMDSI [CTNNA1, P35221]	pKd (MAGI3_2, Q5TCQ9): below the threshold; pKd (TJP1_2, Q07157): below the threshold; pKd (MPDZ_10, O75970): below the threshold; pKd (RADIL, Q96JH8): below the threshold; pKd (LNX2_2, Q8N448): below the threshold
3.66	below the threshold	below the threshold	below the threshold	below the threshold	3.7	3.48	4.01	3.79	below the threshold	4.38	below the threshold	below the threshold	4.32	below the threshold	3.66	below the threshold	below the threshold	below the threshold	below the threshold	QHKTQLQTLI [BPIFA2, Q96DR5]	pKd (MAGI3_2, Q5TCQ9): 4.54; pKd (TJP1_2, Q07157): below the threshold; pKd (MPDZ_10, O75970): below the threshold; pKd (RADIL, Q96JH8): 3.91; pKd (LNX2_2, Q8N448): 4
below the threshold	5.11	below the threshold	below the threshold	4.51	below the threshold	below the threshold	below the threshold	below the threshold	4.24	below the threshold	below the threshold	3.91	below the threshold	below the threshold	6.04	below the threshold	below the threshold	below the threshold	below the threshold	HLRARKSEWV [GJD4, Q96KN9]	pKd (MAGI3_2, Q5TCQ9): 4.04; pKd (TJP1_2, Q07157): 4.97; pKd (MPDZ_10, O75970): below the threshold; pKd (RADIL, Q96JH8): 4.85; pKd (LNX2_2, Q8N448): 5
below the threshold	below the threshold	below the threshold	below the threshold	below the threshold	3.98	below the threshold	below the threshold	below the threshold	below the threshold	below the threshold	below the threshold	below the threshold	below the threshold	below the threshold	below the threshold	below the threshold	below the threshold	below the threshold	below the threshold	DDPSTAETVL [ABCA7, Q8IZY2]	pKd (MAGI3_2, Q5TCQ9): below the threshold; pKd (TJP1_2, Q07157): below the threshold; pKd (MPDZ_10, O75970): below the threshold; pKd (RADIL, Q96JH8): 3.52; pKd (LNX2_2, Q8N448): below the threshold
3.62	below the threshold	below the threshold	3.8	4.14	4.21	below the threshold	below the threshold	below the threshold	4.45	3.58	below the threshold	3.68	below the threshold	below the threshold	below the threshold	below the threshold	below the threshold	below the threshold	below the threshold	VDSTVKVWTC [TRAF7, Q6Q0C0]	pKd (MAGI3_2, Q5TCQ9): below the threshold; pKd (TJP1_2, Q07157): below the threshold; pKd (MPDZ_10, O75970): below the threshold; pKd (RADIL, Q96JH8): 4.2; pKd (LNX2_2, Q8N448): 5.42
below the threshold	below the threshold	below the threshold	below the threshold	below the threshold	4.55	4.8	below the threshold	3.94	below the threshold	below the threshold	below the threshold	below the threshold	below the threshold	below the threshold	below the threshold	below the threshold	below the threshold	below the threshold	below the threshold	YLEPVLSSEL [ATP2A2, P16615;P16615-3]	pKd (MAGI3_2, Q5TCQ9): below the threshold; pKd (TJP1_2, Q07157): below the threshold; pKd (MPDZ_10, O75970): below the threshold; pKd (RADIL, Q96JH8): below the threshold; pKd (LNX2_2, Q8N448): below the threshold
